{"source": "paper PMC5147862", "binders": {"B1": {"name": "RAS association (RA) domain of RASSF5, MBP fusion (domain or fragment)", "chain": "EETQRPPTLQEIKQKIDSYNTREKNCLGMKLSEDGTYTGFIKVHLKLRRPVTVPAGIRPQSIYDAIKEVNLAATTDKRTSFYLPLDAIKQLHISSTTTVSEVIQGLLKKFMVVDNPQKFALFKRIHKDGQVLFQKLSIADRPLYLRLLAGPDTEVLSFV"}}, "target": "KRAS, mGppNHp-bound (human) (UniProt P01116)", "assay": "fluorescence polarisation; MBP-tagged effector domain (0.05-100 μM) titrated to 1 μM RAS-mGppNHp; 50 mM Tris/HCl pH 7.5, 100 mM NaCl, 5 mM MgCl2, 3 mM dithiothreitol, 25°C; quadratic ligand binding equation", "data": [{"binder": "B1", "values": [{"measurement": "Kd", "value": 421, "unit": "nM"}]}]}
